Experimental data published in patent JP2012050437A.

How the values were obtained:
[1] = biological target: Aβ peptide (bio-DAE peptide); assay: Biacore (data not shown); the immobilised Aβ antigen is not given
[2] = biological target: aggregated synthetic Aβ1-42 (human) (UniProt P05067); assay: competition Aβ1-42 ELISA; competitor biotin-conjugated m12A11Cγ2a at a fixed concentration

Kd [1]: 23 nM
fold of IC50 against murine and chimeric 12A11 [2]: < 2 fold
B1: humanized 12A11 antibody, version 1 (antibody, V domains shown)
VH: QVQLVESGGGVVQPGRSLRLSCAFSGFSLSTSGMSVGWIRQAPGKGLEWLAHIWWDDDKYYNPSLKSRLTISKDTSKNTVYLQMNSLRAEDTAVYYCARRTTTADYFAYWGQGTTVTVSS
VL: DVVMTQSPLSLPVTPGEPASISCRSSQSIVHSNGNTYLEWYLQKPGQSPQLLIYKVSNRFSGVPDRFSGSGSGTDFTLKISRVEAEDVGVYYCFQSSHVPLTFGQGTKLEIK
